The text below walks through data of US20060275764.

The series deals with Mannan-binding lectin (MBL), P11226.
Chain of Mannan-binding lectin (MBL), P11226 (P11226 21-248): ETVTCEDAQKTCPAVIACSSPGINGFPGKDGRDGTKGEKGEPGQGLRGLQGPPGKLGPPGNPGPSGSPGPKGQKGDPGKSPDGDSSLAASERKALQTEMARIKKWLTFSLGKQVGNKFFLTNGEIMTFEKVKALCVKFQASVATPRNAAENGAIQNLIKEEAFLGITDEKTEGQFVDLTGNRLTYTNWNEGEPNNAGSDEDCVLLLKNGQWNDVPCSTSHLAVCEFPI

B1: MASP-2 (MBL-associated serine protease 2), wild type, recombinant (protein)
chain: TPLGPKWPEPVFGRLASPGFPGEYANDQERRWTLTAPPGYRLRLYFTHFDLELSHLCEYDFVKLSSGAKVLATLCGQESTDTERAPGKDTFYSLGSSLDITFRSDYSNEKPFTGFEAFYAAEDIDECQVAPGEAPTCDHHCHNHLGGFYCSCRAGYVLHRNKRTCSALCSGQVFTQRSGELSSPEYPRPYPKLSSCTYSISLEEGFSVILDFVESFDVETHPETLCPYDFLKIQTDREEHGPFCGKTLPHRIETKSNTVTITFVTDESGDHTGWKIHYTSTAQPCPYPMAPPNGHVSPVQAKYILKDSFSIFCETGYELLQGHLPLKSFTAVCQKDGSWDRPMPACSIVDCGPPDDLPSGRVEYITGPGVTTYKAVIQYSCEETFYTMKVNDGKYVCEADGFWTSSKGEKSLPVCEPVCGLSARTTGGRIYGGQKAKPGDFPWQVLILGGTTAAGALLYDNWVLTAAHAVYEQKHDASALDIRMGTLKRLSPHYTQAWSEAVFIHEGYTHDAGFDNDIALIKLNNKVVINSNITPICLPRKEAESFMRTDDIGTASGWGLTQRGFLARNLMYVDIPIVDHQKCTAAYEKPPYPRGSVTANMLCAGLESGGKDSCRGDSGGALVFLDSETERWFVGGIVSWGSMNCGEAGQYGVYTKVINYIPWIENIISDF
Turning to B1, the “MBL pathway activity (C4b deposition in mannan coated wells)” value is on record as “Restoration of the MBL pathway was also achieved by adding recombinant MASP-2 to the patient serum”.
